# Tested on: Escherichia coli TOP10
# Assay: shrunken log2 fold change of peptide-encoding DNA abundance (4.5 h post-induction vs induction); higher = less antimicrobial activity (less host growth inhibition)
# Details: time post-induction: 4.5 h; library: site-saturation at positions 5, 18, 19, 20
# 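Further: peptides expressed intracellularly from a pBAD plasmid library in pooled LB shake-flask culture, induced with 0.3% L-arabinose, DNA abundance read by NGS, three biological replicates, DESeq2 with apeglm shrinkage.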
row,Sequence,shrunken log2 fold change
1,RRIRHRPPRLPRPRPRPTNNPRP,-0.467
2,RRIRNRPPRLPRPRPRPAKEPRP,0.0446
3,RRIRWRPPRLPRPRPRPQPCPRP,0.179
4,RRIRTRPPRLPRPRPRPQMRPRP,0.472
5,RRIRCRPPRLPRPRPRPKFLPRP,-0.258
6,RRIRNRPPRLPRPRPRPQYMPRP,-1.16
7,RRIRHRPPRLPRPRPRPWGWPRP,0.284
8,RRIRFRPPRLPRPRPRPALEPRP,0.0373
9,RRIRVRPPRLPRPRPRPQHLPRP,-0.117
10,RRIRHRPPRLPRPRPRPPCQPRP,0.0503
11,RRIRSRPPRLPRPRPRPIKGPRP,-0.00753
12,RRIRERPPRLPRPRPRPEFHPRP,-0.207
13,RRIRKRPPRLPRPRPRPPIHPRP,0.327
14,RRIRRRPPRLPRPRPRPEGAPRP,1.05
15,RRIRYRPPRLPRPRPRPEQQPRP,-0.0122
16,RRIRFRPPRLPRPRPRPTGCPRP,0.125
17,RRIRNRPPRLPRPRPRPIVYPRP,-0.528
18,RRIRHRPPRLPRPRPRPFQTPRP,-0.183
19,RRIRKRPPRLPRPRPRPNIYPRP,-0.275
20,RRIRSRPPRLPRPRPRPGKYPRP,-0.759
21,RRIRPRPPRLPRPRPRPCNGPRP,-0.202
22,RRIRIRPPRLPRPRPRPTTHPRP,-0.441
23,RRIRSRPPRLPRPRPRPHWAPRP,-0.0673
24,RRIRPRPPRLPRPRPRPIIFPRP,-0.0799
25,RRIRWRPPRLPRPRPRPKDWPRP,0.246

row,Sequence,shrunken log2 fold change
1,RRIRIRPPRLPRPRPRPQHIPRP,-0.542
2,RRIRYRPPRLPRPRPRPVTRPRP,-0.129
3,RRIRMRPPRLPRPRPRPVCDPRP,0.367
4,RRIRQRPPRLPRPRPRPRVCPRP,0.303
5,RRIRRRPPRLPRPRPRPKQDPRP,0.38
6,RRIRQRPPRLPRPRPRPIILPRP,-0.516
7,RRIRIRPPRLPRPRPRPIDYPRP,-1.06
8,RRIRVRPPRLPRPRPRPCFRPRP,-0.164
9,RRIRVRPPRLPRPRPRPKRTPRP,0.0795
10,RRIRHRPPRLPRPRPRPREFPRP,0.0275
11,RRIRCRPPRLPRPRPRPEEIPRP,-0.0231
12,RRIRYRPPRLPRPRPRPMRPPRP,0.512
13,RRIRRRPPRLPRPRPRPTHTPRP,0.66
14,RRIRHRPPRLPRPRPRPLKGPRP,0.0721
15,RRIRQRPPRLPRPRPRPNYCPRP,-0.0656
16,RRIRNRPPRLPRPRPRPHAWPRP,-0.0119
17,RRIRYRPPRLPRPRPRPWIIPRP,-0.384
18,RRIRDRPPRLPRPRPRPPGIPRP,0.233
19,RRIRQRPPRLPRPRPRPGADPRP,0.47
20,RRIRRRPPRLPRPRPRPPHCPRP,1.08
21,RRIRTRPPRLPRPRPRPSAVPRP,-0.0697
22,RRIRVRPPRLPRPRPRPDSEPRP,-0.105
23,RRIRNRPPRLPRPRPRPAIAPRP,0.0215
24,RRIRTRPPRLPRPRPRPVVNPRP,0.0198
25,RRIRWRPPRLPRPRPRPDWIPRP,-0.0204

row,Sequence,shrunken log2 fold change
1,RRIRNRPPRLPRPRPRPNWGPRP,-0.0231
2,RRIRQRPPRLPRPRPRPLMTPRP,0.0563
3,RRIRYRPPRLPRPRPRPGMEPRP,-0.0379
4,RRIRARPPRLPRPRPRPEEGPRP,0.457
5,RRIRLRPPRLPRPRPRPITEPRP,0.0241
6,RRIRGRPPRLPRPRPRPYKFPRP,-0.138
7,RRIRIRPPRLPRPRPRPARNPRP,-0.179
8,RRIRRRPPRLPRPRPRPWSAPRP,0.131
9,RRIRMRPPRLPRPRPRPFAFPRP,0.0579
10,RRIRGRPPRLPRPRPRPWVEPRP,0.129
11,RRIRNRPPRLPRPRPRPRFSPRP,0.0393
12,RRIRGRPPRLPRPRPRPPDCPRP,1.28
13,RRIRCRPPRLPRPRPRPRNCPRP,-0.288
14,RRIRNRPPRLPRPRPRPRCKPRP,0.0547
15,RRIRERPPRLPRPRPRPAIQPRP,-0.337
16,RRIRTRPPRLPRPRPRPYQGPRP,-0.0132
17,RRIRIRPPRLPRPRPRPWSCPRP,0.0678
18,RRIRARPPRLPRPRPRPYIAPRP,-0.438
19,RRIRYRPPRLPRPRPRPANDPRP,-0.0297
20,RRIRYRPPRLPRPRPRPVMDPRP,-0.122
21,RRIRYRPPRLPRPRPRPHGTPRP,-0.209
22,RRIRTRPPRLPRPRPRPVYKPRP,-0.188
23,RRIRNRPPRLPRPRPRPCHLPRP,-0.146
24,RRIRKRPPRLPRPRPRPHTHPRP,-0.0896
25,RRIRHRPPRLPRPRPRPDREPRP,0.0062

row,Sequence,shrunken log2 fold change
1,RRIRPRPPRLPRPRPRPCYMPRP,-1.12
2,RRIRKRPPRLPRPRPRPVYNPRP,-0.0144
3,RRIRWRPPRLPRPRPRPQNRPRP,0.0839
4,RRIRSRPPRLPRPRPRPRVLPRP,-0.285
5,RRIRIRPPRLPRPRPRPPQNPRP,-0.33
6,RRIRARPPRLPRPRPRPHYCPRP,-0.17
7,RRIRGRPPRLPRPRPRPKDHPRP,0.465
8,RRIRARPPRLPRPRPRPYYLPRP,-0.539
9,RRIRLRPPRLPRPRPRPDWLPRP,0.318
10,RRIRVRPPRLPRPRPRPEHAPRP,0.0467
11,RRIRDRPPRLPRPRPRPLVHPRP,0.265
12,RRIRYRPPRLPRPRPRPIICPRP,-0.185
13,RRIRYRPPRLPRPRPRPCNCPRP,-0.0018
14,RRIRERPPRLPRPRPRPWSRPRP,0.0483
15,RRIRYRPPRLPRPRPRPICSPRP,0.0329
16,RRIRGRPPRLPRPRPRPHANPRP,0.361
17,RRIRERPPRLPRPRPRPGFTPRP,0.00165
18,RRIRRRPPRLPRPRPRPIFCPRP,0.0473
19,RRIRARPPRLPRPRPRPDHWPRP,0.0446
20,RRIRQRPPRLPRPRPRPACVPRP,0.0809
21,RRIRYRPPRLPRPRPRPKDIPRP,-0.109
22,RRIRGRPPRLPRPRPRPFSTPRP,-0.0796
23,RRIRTRPPRLPRPRPRPDILPRP,0.109
24,RRIRCRPPRLPRPRPRPYSGPRP,-0.566
25,RRIRCRPPRLPRPRPRPKRVPRP,0.267

row,Sequence,shrunken log2 fold change
1,RRIRARPPRLPRPRPRPHNPPRP,0.0946
2,RRIRCRPPRLPRPRPRPAIDPRP,-0.0121
3,RRIRVRPPRLPRPRPRPQHSPRP,-0.245
4,RRIRNRPPRLPRPRPRPKCQPRP,0.0753
5,RRIRARPPRLPRPRPRPDNKPRP,-0.24
6,RRIRMRPPRLPRPRPRPPMQPRP,0.504
7,RRIRMRPPRLPRPRPRPYTTPRP,-0.335
8,RRIRSRPPRLPRPRPRPNCPPRP,-0.374
9,RRIRMRPPRLPRPRPRPVEQPRP,0.0366
10,RRIRARPPRLPRPRPRPVDDPRP,0.469
11,RRIRIRPPRLPRPRPRPRRHPRP,-0.147
12,RRIRTRPPRLPRPRPRPGPLPRP,0.185
13,RRIRGRPPRLPRPRPRPHMTPRP,1.45
14,RRIRTRPPRLPRPRPRPWKGPRP,0.143
15,RRIRTRPPRLPRPRPRPYELPRP,-0.854
16,RRIRTRPPRLPRPRPRPVIEPRP,-0.408
17,RRIRERPPRLPRPRPRPKAFPRP,0.0124
18,RRIRARPPRLPRPRPRPMFHPRP,-0.275
19,RRIRWRPPRLPRPRPRPHNPPRP,-0.115
20,RRIRPRPPRLPRPRPRPFDRPRP,0.0133
21,RRIRSRPPRLPRPRPRPKVHPRP,-0.231
22,RRIRPRPPRLPRPRPRPRCDPRP,0.0398
23,RRIRQRPPRLPRPRPRPSYCPRP,0.103
24,RRIRWRPPRLPRPRPRPAQDPRP,0.415
25,RRIRERPPRLPRPRPRPPVLPRP,0.127

row,Sequence,shrunken log2 fold change
1,RRIRWRPPRLPRPRPRPQRVPRP,2.3
2,RRIRKRPPRLPRPRPRPGCTPRP,0.517
3,RRIRKRPPRLPRPRPRPPKHPRP,0.723
4,RRIRIRPPRLPRPRPRPCHSPRP,0.00888
5,RRIRQRPPRLPRPRPRPNLEPRP,-0.136
6,RRIRRRPPRLPRPRPRPWPGPRP,0.287
7,RRIRWRPPRLPRPRPRPQVAPRP,0.472
8,RRIRFRPPRLPRPRPRPAVNPRP,-0.106
9,RRIRIRPPRLPRPRPRPPVLPRP,0.328
10,RRIRIRPPRLPRPRPRPVSWPRP,-0.171
11,RRIRMRPPRLPRPRPRPRWKPRP,0.214
12,RRIRHRPPRLPRPRPRPMDPPRP,-0.385
13,RRIRSRPPRLPRPRPRPCITPRP,-0.185
14,RRIRWRPPRLPRPRPRPLYQPRP,-0.363
15,RRIRERPPRLPRPRPRPILNPRP,2.73
16,RRIRFRPPRLPRPRPRPSVFPRP,-0.165
17,RRIRPRPPRLPRPRPRPDCIPRP,-0.391
18,RRIRARPPRLPRPRPRPCGFPRP,0.111
19,RRIRGRPPRLPRPRPRPCVYPRP,0.486
20,RRIRLRPPRLPRPRPRPFTWPRP,-0.369
21,RRIRCRPPRLPRPRPRPHNPPRP,-0.377
22,RRIRQRPPRLPRPRPRPQVMPRP,0.095
23,RRIRFRPPRLPRPRPRPAHNPRP,-0.016
24,RRIRPRPPRLPRPRPRPHMCPRP,-0.082
25,RRIRDRPPRLPRPRPRPECDPRP,1.39
